Measurements taken from the nanobody polyreactivity screen of Harvey et al. (2022).

test: yeast display, Sf9 membrane polyspecificity reagent, FACS + sequencing; frameworks hold sequencing errors
In short: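 Polyreactivity labels are assigned by the sorting gate from which each nanobody was recovered. The gates were low and high (top ~1%), set on anti-HA fluorescence for expression and streptavidin fluorescence for reagent binding. Before sorting, galactose-induced (36–48 hours) yeast display cells were stained for 1 hour at 4 °C with 10% biotinylated, detergent-solubilized Sf9 membrane reagent.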

Sequence	polyreactivity (PSR sort gate)
QLQLQESGGGLVQAGGSLRLSCAASGNISVTGFMGWYRQAPGKERELVASIGIGGTTYYADSVKGRFSISRDNAKNTVYLQMNSLKPEDTAVYYCAARYLYYAYSYWGQGTQVTVSS	low polyreactivity
QVQLVESGGGLVQAGGSLRISCAASGIIFPQYTMGWYRPAPGKERELVAVITSGGSTYYADSVKGRFTISRDNAKNTVYLQMNSLNPEDTAVYYCAAETETYWWTFITREYDYWGQGTQVTVSS	high polyreactivity
QVQLVESGGGLVQAGGSLRLSCAASGFTFHTYAMGWYRQAPGKERELVAAIDSSGGITYYADSVKGRFTISRDNAKNTVYLQMKSLKPEDTAVYYCAAVFLLFGFEWSYDYWGQGTQVTVSS	low polyreactivity
QVQLVESGGGLVQAGGSLRLSCAASGFTFAQYAMGWYRQAPGKERELVATISRRGGSTYYADSVKGRFTISRDNAKNTVYLQMNSLKPEDTAVYYCTAAKYLYRHGFLSAGDMYYWGQGTQVTVSS	high polyreactivity
QVQLVESGGGIVQAGGSLSLSCAASGFNFGIYAMGWYRQAPGKEREFVAAITGSAGSTYYADSVKGRFTISLDNAKNTVYLQMNSLKPEDTAVYYCAAVLRTHRYGGYNYWGQGTQVTVSS	low polyreactivity
QVQLVESGGGLVQAGGILRLSSAASGFTFYLYTMGWYTPAPGKERELVAAISRSGDRTYYADSVKGRFTISRDNAKNTVYLQMNSLKPEDTAVYYCNAYTSYPNTMDYWGQGTQVTVSS	high polyreactivity
QVQLVESGAGLVQAGGSLRLTCAASGFIFGYNARGWYRPAPGKERELVAAIRYRGVSTYYADSVKGRFTISRDNAKNTFYLQMNSLKPVETAVYYCNARTRVKTTQSYDRNYYYWGQGTQVTVSS	high polyreactivity
QVHLVESGGGLVQAGGSLRLSFAASGIILYDYAMGWNRQAPGKEREMVAGINRSGGITYYADSVKGRFTISRDNAKNTVYFQMNSLIPEDTAVYYCNAVFRYGATRSYRYDYWGQGTQVTVSS	high polyreactivity
QVHLVESRGVLVQAGCSLRLSCAASGRIFTDYAMGWYRQAPRKERELVAAISGSGGSTYYADSVKVRFSISRDNAKNNVYLQMNSLKPEDTAVYYCAARVARRYEWGQGTQVTVSS	high polyreactivity
QVQLVESGGGLVLAGGSLRLSCAASRFILRDNGMGWNRKAPVKERELVAAISERGGRTDYADSVKGRFTISRDNAKNTVYLQMNSLKPEDTAVYYCAAEDIANFYYWGQGPQVTVSS	high polyreactivity
QVQLVESGGGLVQAGGSLRLSCAASGSTFRVNDMGWYRQAPGKESEFVAGISWSGGSTYYADSVKGRFTISRDNAKNTVYLQMNTLKPEETAVYYCAADGYGQGNNRNYNYGGQGTQVTVSS	low polyreactivity
QVQLVESGGGLVQAGGCLRLSCAASGSTLDSNAMGWYREAPGKERELVAGIDWCGGSTYADSVKGRFTISRDNAKNTVELQMTSLKPEDTAVYYCAKVSRYVQPYSRFDYWGQGTQVTVSS	low polyreactivity
QVQLQVSGGGLVQAGGNLRLSCAASGTISDSVGMGWYRQAPGKEREFVAGITLGGITNYADSVRGRFTISRDNGKNLYLQMKSLKPEETAVYYCAVDDYRYINYEFWGQGTQVTVSS	high polyreactivity
QVQLVESGGGLVQAGGSLRLSCAASGSIFESYAMGWYRQAPGKERELVAAITLSGTSTYYADSVKGRFTISRDNAKNTVYLQMNSLKPEDTAVYYCNAKPIPVRGSYDYWGQGTQVTVSS	low polyreactivity
QVQLVESGGGLVQAGGSLRLSCAASGRTFGPYAMGWYRQAPGKERELVATISSNGASTYYADSVKGRFTISRDNAKNTVYLQMNSLKPEDTAVYYCAAEFHFWGYLYDYWGQGTQVTVSS	low polyreactivity
QVQLVESGGGLVQAGGSLRLSCAASGFTVYYYALGWYRQAPGKERELVAAISDSGGITSYADSVKGRFTISRDNAKNTVYLQMNSLKPEDTAVYYCAYIFGWSSSSKSYYYWGQGTQVTVSS	low polyreactivity

Sequence	polyreactivity (PSR sort gate)
QVHLVESGGGLVQAGGSLRLSSPASGRIFQDNAMGWYRQAPGKERELVAAISSSGGSTYYADSVKGRFTISRDNAKNTVYLHMNSLKPEDTAVYYCAADYYWYWDLYDYWGQGTQVSVSS	high polyreactivity
QVQLVESGGGLVQAGGSLRLSCAASGSIFYQNAMGWYRQAPGKEREFVAAIRSSGSSTYYADSVKGRFTISRDNAKNTVYLQMNSLKPEDTAVYYCAAPSSRGQGRNFDYWGQGTQVTVSS	high polyreactivity
QVQLVESGGGLVQAGGSLRLTCAASGSTFYRYAMGWYRQAPGKERELVAAISTSGGRTYYADSVKGRFTISRDNAKNTVYLQMNSLKPEDTAVYYCAADQYRYYRSTYDYWGQGTQVTVSS	high polyreactivity
QVQLVDSGGGLVQAGGSLSLSCAASGNIFDYNVMGWYRQAPGKERELVAAITASAVRTYYADSVKGRFTISRDNAKNTVYLQMNSLKPEDIAVYYCGKRRIVRQRSYYYWGQGTQVTVSS	low polyreactivity
QVQLVESGGRLVQAGGSLRLSCAASGSIFGGNDMGWYRQAPGKERELVAAITSSGGSTYYADSVKGRFTISRDNAKNTVYLQMNSLKPEDTAVYYCNADYYGPYRDYGYWGQGTQVTVSS	low polyreactivity
QVQLVESGGGLVQAGGSLRLSCAASGSISGYYTMGWYRQAPGKERELVAAISRSGVRTYYADSVKGRFTISRDNAMNTVYLQMNSLKPEDTAVYYCARKDSSLGDYWGQGTQVTVSS	high polyreactivity
QVQLVESGGGLVQAGGSLRLSCAASGRTYRRNAMGWYRQAPGKERELVAAIRSDGSTYYADSVKGRFTISRDNAKNTVYLQMNRLKPEDTAVYYCNAVYVSSFTCHDYWGQGTQVTVSS	low polyreactivity
QVHLVESGGGLVQAGGSLRLSCADSGSTFVAYAMGWYRQAPGKERDLVAAISKSGVRTYYADSVKGRFTISRDNAKNTVYLVMISLKPEDNAVYVCAADSGDLWGPFGYWGQGTQVTVSS	low polyreactivity
LVQLQESGGGLVQAGGSLRLSCAASGTISPGGYMGWYRQAPGKERELVASMNVGGSTNYADSVKGRFTISRDNAIITVYLQMNSLKPEDNAVYYCAVWGRNRLQLSYWGQGTQVTVSS	low polyreactivity
QVQLVESGGGLVQAGGSLLLSCAASGITFSYYAMGWYRQAPGKERELVAAISRTGTSTYYADSVKGRFTISRDNAKNTVYLQMKSLKPEDTAVYYCAAVPRHPYHDKYDYWGQGTQVTVSS	high polyreactivity
QVQLVESGGGLVQAGGSLRLSCAASGSIFLLYARGWYRQAPGKERELVAAISRGGSTYYADSVKGRFTISRDNAKNTVYLQMNSLKPEDTAVYYCAAKLYYGYDWGQGTQVTVSS	low polyreactivity
QVQLVESGGGLVQAGGSLRLSCAASGRTLLYYAMGWYRQAPGKERELVARISTGGGTSYADSVKGRFTISRDNAKNTVYLQMNSLKPEDTAVFYCAAKRSYRRALLTLDYWGHGTQVTVSS	high polyreactivity
QVQLVESGGGLVQAGGSLRLSCAASGITFAHYAMGWYRQAPGKERELVAVITSGGSTYYADSVKGRFTISRDNAKNTVYLQMNSLKPEDTAVYYCNRVPRRSIRYDYWGQGTQVTVSS	high polyreactivity
QVQLVESGGGLVQAGGSLRLSCAASGSTFSRYAMGWYRPAPGKERELVATITRGGSTNYADSVKGRFTISRDNAQNTVYLQMTSLKPEDTAVYYCNKTARYVDGRGDYWGQGTQVTVSS	low polyreactivity
QVQLVESGGGLVQAGGSLRLSCAASGLTFRKYAMGWYRQAPGKERELVAAITRGGSTNYADSVKGRFTISRDNAKNTVYLQMNSLKPEDTAVYYCNTRPYRPFDYWGQGTQVTVSS	high polyreactivity
QVQLVESGGGLVQAGGSLRLSCAASGSILQTNVMGWYIQAPGKEREFVAAIRWSTVSTYYADSVKGRFTISRDNAKNTVYLQMNSLKPEDTAVYYCASAKSWYSYKMDYWGQGTQVTVSS	low polyreactivity
